This note sets out measurements from the supplement of paper PMC9112550, “Optimization of the antimicrobial peptide Bac7 by deep mutational scanning” (BMC Biology, 2022).

For this series, the system named is Escherichia coli TOP10. Briefly: shrunken log2 fold change of peptide-encoding DNA abundance (4.5 h post-induction vs induction); higher = less antimicrobial activity (less host growth inhibition). Conditions: time post-induction: 4.5 h; library: site-saturation at positions 5, 18, 19, 20.
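Also: peptides expressed intracellularly from a pBAD plasmid library in pooled LB shake-flask culture, induced with 0.3% L-arabinose, DNA abundance read by NGS, three biological replicates, DESeq2 with apeglm shrinkage.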

As to RRIRSRPPRLPRPRPRPKIGPRP, the “shrunken log2 fold change” value is -0.0115. The same measure for RRIRIRPPRLPRPRPRPDIIPRP: -0.0935.

Consider RRIRARPPRLPRPRPRPVFAPRP, for which the “shrunken log2 fold change” value was 0.561. The same measure for RRIRIRPPRLPRPRPRPFRHPRP: -0.219.

In the case of RRIRQRPPRLPRPRPRPMRPPRP, the “shrunken log2 fold change” value stood at 0.968. As to RRIRMRPPRLPRPRPRPATTPRP, the “shrunken log2 fold change” value was 0.538. On to RRIRMRPPRLPRPRPRPILVPRP, for which the “shrunken log2 fold change” value stood at 0.133. Next, RRIRFRPPRLPRPRPRPWNPPRP: -0.222; RRIRMRPPRLPRPRPRPMWGPRP: 0.285; RRIRRRPPRLPRPRPRPQLMPRP: 0.247. The same measure for RRIRYRPPRLPRPRPRPVHRPRP: -0.462; for RRIRTRPPRLPRPRPRPQHRPRP: -0.0713; for RRIRKRPPRLPRPRPRPPKSPRP: 0.462.

With RRIRVRPPRLPRPRPRPNYCPRP, the “shrunken log2 fold change” value is -0.157. Next, RRIRHRPPRLPRPRPRPLNNPRP: -0.684. The same measure for RRIRSRPPRLPRPRPRPVFHPRP: -0.026; for RRIRHRPPRLPRPRPRPIFKPRP: -0.195. Next, RRIRMRPPRLPRPRPRPYMHPRP: -0.0641; RRIRWRPPRLPRPRPRPLELPRP: 0.106; RRIRRRPPRLPRPRPRPSVKPRP: 0.155. For the sequence RRIRYRPPRLPRPRPRPYFHPRP, the “shrunken log2 fold change” value was -1.4.

As for RRIRARPPRLPRPRPRPKSKPRP, the “shrunken log2 fold change” value came to 0.257. Consider RRIRPRPPRLPRPRPRPWARPRP, for which the “shrunken log2 fold change” value amounted to 0.0379. Next, RRIRWRPPRLPRPRPRPRALPRP: 0.354; RRIRSRPPRLPRPRPRPAHMPRP: -0.138; RRIRQRPPRLPRPRPRPNEPPRP: -0.0605. Regarding RRIRARPPRLPRPRPRPMGGPRP, the “shrunken log2 fold change” value came to 0.0776.

Take RRIRSRPPRLPRPRPRPCALPRP: the “shrunken log2 fold change” value is -0.242. Next, RRIRFRPPRLPRPRPRPGCWPRP: 0.524; RRIRTRPPRLPRPRPRPPSIPRP: 0.114.

Take RRIRVRPPRLPRPRPRPVYLPRP: the “shrunken log2 fold change” value was -0.108. With RRIRTRPPRLPRPRPRPDKDPRP, the “shrunken log2 fold change” value was -0.0511. The same measure for RRIRTRPPRLPRPRPRPAMGPRP: 0.391; for RRIRDRPPRLPRPRPRPVEGPRP: 0.211. The same measure for RRIRERPPRLPRPRPRPCNPPRP: -0.442; for RRIRCRPPRLPRPRPRPLMSPRP: -0.289; for RRIRFRPPRLPRPRPRPRGHPRP: 0.348. Next, RRIRSRPPRLPRPRPRPQMFPRP: -0.0871; RRIRNRPPRLPRPRPRPSQPPRP: -0.0682; RRIRMRPPRLPRPRPRPAGKPRP: 0.461. As to RRIRSRPPRLPRPRPRPSKGPRP, the “shrunken log2 fold change” value was -0.142. The same measure for RRIRFRPPRLPRPRPRPFCRPRP: -0.316; for RRIRRRPPRLPRPRPRPMVNPRP: -0.0292; for RRIRLRPPRLPRPRPRPWCSPRP: -1.02.

RRIRKRPPRLPRPRPRPPYVPRP: the “shrunken log2 fold change” value was determined as 0.0388. As for RRIRARPPRLPRPRPRPTVYPRP, the “shrunken log2 fold change” value is -0.00696. Next, RRIRSRPPRLPRPRPRPPCLPRP: -0.105; RRIRARPPRLPRPRPRPRSQPRP: 0.00929. Next, RRIRYRPPRLPRPRPRPGDEPRP: -0.0823. Next, RRIRARPPRLPRPRPRPRKAPRP: 0.0975.
